Assay in all cases: MST; His-tagged DHS variants labelled with RED-tris-NTA 2nd Generation, 8.32 nM; eIF5A titrated, sixteen dilutions 0.00175–57.5 μM; 50 mM Tris, 200 mM NaCl, 5 mM β-ME pH 8; Monolith NT.115, 40% excitation power, 60% MST power; no NAD or SPD
Common to all, as to details: both partners purified

Test [1] addresses T1, deoxyhypusine synthase, wild type, His-tagged (human, UniProt P49366 1-369, RED-tris-NTA 2nd Generation dye on the His tag).
T1 construct: human deoxyhypusine synthase, Uniprot P49366, residues 1-369, in pET24d with N-terminal 6xHis-tag and TEV site; also called DHS; DHS wt; source: E. coli, purified; not shown: 6xHis, N-terminal, kept
T1 sequence (looked up): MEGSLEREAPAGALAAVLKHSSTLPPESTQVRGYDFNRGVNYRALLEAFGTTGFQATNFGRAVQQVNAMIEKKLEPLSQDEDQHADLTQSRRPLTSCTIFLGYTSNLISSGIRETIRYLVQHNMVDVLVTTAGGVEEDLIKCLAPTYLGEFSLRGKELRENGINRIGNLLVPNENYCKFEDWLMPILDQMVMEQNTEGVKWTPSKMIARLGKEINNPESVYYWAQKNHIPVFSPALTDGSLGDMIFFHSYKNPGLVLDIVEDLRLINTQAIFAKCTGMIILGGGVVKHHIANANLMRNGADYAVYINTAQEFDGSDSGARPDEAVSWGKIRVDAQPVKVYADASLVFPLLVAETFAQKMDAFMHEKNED

For test [2], the target named is T2, deoxyhypusine synthase E137A, His-tagged (human, UniProt P49366 1-369, E137A, RED-tris-NTA 2nd Generation dye on the His tag).
T2 construct: human deoxyhypusine synthase, Uniprot P49366, residues 1-369, site-directed mutant of the pET24d full-length construct; also called DHS E137A; source: E. coli, purified; not shown: 6xHis, N-terminal, kept
T2 sequence (looked up): T1 sequence (looked up) with E137A

For test [3], the target named is T3, deoxyhypusine synthase M244A, His-tagged (human, UniProt P49366 1-369, M244A, RED-tris-NTA 2nd Generation dye on the His tag).
T3 construct: human deoxyhypusine synthase, Uniprot P49366, residues 1-369, site-directed mutant of the pET24d full-length construct; also called DHS M244A; source: E. coli, purified; not shown: 6xHis, N-terminal, kept
T3 sequence (looked up): T1 sequence (looked up) with M244A

In test [4] the target is T4, deoxyhypusine synthase F247A, His-tagged (human, UniProt P49366 1-369, F247A, RED-tris-NTA 2nd Generation dye on the His tag).
T4 construct: human deoxyhypusine synthase, Uniprot P49366, residues 1-369, site-directed mutant of the pET24d full-length construct; also called DHS F247A; source: E. coli, purified; not shown: 6xHis, N-terminal, kept
T4 sequence (looked up): T1 sequence (looked up) with F247A

Numbering of substitutions follows the chain as printed. A value given as a limit tells only on which side of the number the result lay.

The values that follow come from article PMC10042821, “Cryo-EM structure of human eIF5A-DHS complex reveals the molecular basis of hypusination-associated neurodegenerative disorders” (Nature Communications, 2023).

B1: eukaryotic translation factor 5A (eIF5A-1), residues 15-151 (domain or fragment)
chain: not shown
notes: human eIF5A1, residues 15-151, from pET28-MHL (Addgene); The purification protocol removes the tag with TEV; source: E. coli, purified (HisTrap, TEV cleavage, reverse HisTrap, SEC); not shown: His tag, N-terminal, cleaved
With B1, the dissociation constant Kd in test [1] is 40 ± 9 nM; in test [2], 2550 ± 880 nM; in test [3] it was more than 5000 nM; in test [4] it was more than 5000 nM.

As a reminder, the Kd is the free concentration of one partner at which half of the binding sites on the other are occupied at equilibrium, for simple one-to-one binding. Read a low Kd as higher affinity.
